# Measured values as given in patent publication US9289468B2, “Fusion protein comprising circularly permuted form of trail/Apo2L, coding gene and use thereof” (Beijing Sunbio Biotech Co. Ltd., priority 2011, dated 2016).
# B1: CPT: recombinant human circularly permuted TRAIL: amino acids 135-281, a linker, amino acids 122-135; SEQ ID NO: 1 (protein)
# chain: TLSSPNSKNEKALGRKINSWESSRSGHSFLSNLHLRNGELVIHEKGFYYIYSQTYFRFQEEIKENTKNDKQMVQYIYKYTSYPDPILLMKSARNSCWSKDAEYGLYSIYQGGIFELKENDRIFVSVTNEHLIDMDHEASFFGAFLVGGGGGGVAAHITGTRGRSNT
# modifications: CPT polypeptide sequence
# Test system: human multiple myeloma cell line U266
# Experiment: Combination with melphalan, cell survival (ATPlite)
# Format: cell-based
# Conditions: U266 / U266B1
# Procedure: FIG. 9. […] U266 cells are insensitive to CPT. At the concentration of 1 μg/ml, NCPT-1.M1 alone has a mild killing effect on U266 (<20%), but with the presence of melphalan (12.5˜50 μg/ml), both of them can cause enhanced killing effect. The cell viability was assayed with ATPlite luminescent system (PerkinElmer), the data as shown in this figure are all represented as the mean±standard deviation, n=4, #P<0.05, ##P<0.01 vs. melphalan group; *P<0.05 vs. NCPT-1.M1 group.
molecule,measurement,value
B1,sensitivity of the cell line,insensitive
